Experimental data taken from patent US20130005646A1 (Novo Nordisk, published 2013).
Where two headings read alike, the source gives them in different places. One block for each binder: values may come before it. Starred links: 1 amine or outer side, 2 acyl side, 3 side chain; linkers in the order of their positions; H or OH if unused. Positions of bridges follow the written chain, without caps; N, C: chain ends. Non-standard residues stand in square brackets, D forms with d. *: point of attachment. C20 diacid = O=C(O)CCCCCCCCCCCCCCCCCCC(=O)*; C18 diacid = O=C(O)CCCCCCCCCCCCCCCCC(=O)*; γGlu = O=C(O)[C@H](CCC(=O)[*:2])N[*:1]; Orn = NCCC[C@H](N)C(=O)O; AEEA = NCCOCCOCC(=O)O

Experiments:
Test in all cases: cell-based or functional assay
[1] = target: T1, human amylin 3(a) receptor (human calcitonin receptor co-expressed with RAMP-3) (human) (UniProt P30988)
T1 sequence (looked up) 1: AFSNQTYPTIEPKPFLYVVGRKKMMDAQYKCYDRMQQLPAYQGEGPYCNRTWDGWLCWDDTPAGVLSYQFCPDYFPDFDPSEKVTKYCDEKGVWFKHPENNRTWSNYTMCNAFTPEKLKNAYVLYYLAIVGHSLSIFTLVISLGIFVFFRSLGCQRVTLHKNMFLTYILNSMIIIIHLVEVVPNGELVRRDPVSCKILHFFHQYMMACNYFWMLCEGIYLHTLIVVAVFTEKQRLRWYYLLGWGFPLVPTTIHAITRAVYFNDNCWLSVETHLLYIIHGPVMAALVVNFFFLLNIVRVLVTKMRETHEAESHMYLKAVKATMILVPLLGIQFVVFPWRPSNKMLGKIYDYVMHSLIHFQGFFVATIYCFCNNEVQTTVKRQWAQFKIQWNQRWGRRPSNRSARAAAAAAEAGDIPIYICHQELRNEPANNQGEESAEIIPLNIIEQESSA
T1 sequence (looked up) 2: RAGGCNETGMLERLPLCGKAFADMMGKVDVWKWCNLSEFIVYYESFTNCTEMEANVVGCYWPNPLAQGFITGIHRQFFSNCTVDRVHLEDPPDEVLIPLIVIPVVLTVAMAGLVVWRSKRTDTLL

[2] = target: T2, human amylin 3(a) receptor (human calcitonin receptor + RAMP-3) (human) (UniProt P30988)
T2 sequence (looked up) 1: T1 sequence (looked up) 1
T2 sequence (looked up) 2: T1 sequence (looked up) 2

[3] = target: T1, human amylin 3(a) receptor (human calcitonin receptor co-expressed with RAMP-3) (human); remark: listed apart in the source
[4] = target: T3, human amylin 3(a) receptor (human calcitonin receptor with RAMP-3) (human) (UniProt P30988)
T3 sequence (looked up) 1: T1 sequence (looked up) 1
T3 sequence (looked up) 2: T1 sequence (looked up) 2

[5] = target: T4, human calcitonin (a) receptor (human) (UniProt P30988)
T4 sequence (looked up): T1 sequence (looked up) 1

[6] = target: T5, human amylin 3(a) receptor (human calcitonin receptor co-expressed with RAMP-3) (human, UniProt P30988 25-474; O60896 24-148)
T5 sequence (looked up) 1: T1 sequence (looked up) 1
T5 sequence (looked up) 2: T1 sequence (looked up) 2

human amylin receptor = target: T6, human amylin receptor (human, UniProt P30988 25-474; O60896 24-148, limits assumed)
T6 sequence (looked up) 1: T1 sequence (looked up) 1
T6 sequence (looked up) 2: T1 sequence (looked up) 2

Amylin receptor human = target: T7, Amylin receptor human (human, UniProt P30988 25-474; O60896 24-148, limits assumed)
T7 sequence (looked up) 1: T1 sequence (looked up) 1
T7 sequence (looked up) 2: T1 sequence (looked up) 2

[7] = target: T8, human amylin 3(a) receptor (human calcitonin receptor + RAMP-3) (human, UniProt P30988 25-474; O60896 24-148)
T8 sequence (looked up) 1: T1 sequence (looked up) 1
T8 sequence (looked up) 2: T1 sequence (looked up) 2

[8] = target: T9, human calcitonin (a) receptor (human, UniProt P30988 25-474)
T9 sequence (looked up): T1 sequence (looked up) 1

[9] = target: T10, rat amylin 3(a) receptor (rat calcitonin(a) receptor + rat RAMP3) (rat, UniProt P32214 25-516; Q9JJ73 23-147)
T10 sequence (looked up) 1: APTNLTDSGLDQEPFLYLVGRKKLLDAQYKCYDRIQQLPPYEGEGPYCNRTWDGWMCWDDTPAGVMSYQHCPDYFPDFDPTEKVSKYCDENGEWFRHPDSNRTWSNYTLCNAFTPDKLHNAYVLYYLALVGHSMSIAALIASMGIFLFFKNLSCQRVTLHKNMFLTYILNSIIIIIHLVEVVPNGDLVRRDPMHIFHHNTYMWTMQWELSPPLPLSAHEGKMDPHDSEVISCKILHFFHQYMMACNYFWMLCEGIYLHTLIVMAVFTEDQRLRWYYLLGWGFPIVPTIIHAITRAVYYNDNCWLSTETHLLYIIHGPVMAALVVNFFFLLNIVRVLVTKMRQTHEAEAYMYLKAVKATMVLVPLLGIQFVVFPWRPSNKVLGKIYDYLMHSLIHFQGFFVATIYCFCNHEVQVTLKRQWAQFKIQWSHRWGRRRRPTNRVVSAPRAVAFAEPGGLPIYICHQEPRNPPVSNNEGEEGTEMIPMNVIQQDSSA
T10 sequence (looked up) 2: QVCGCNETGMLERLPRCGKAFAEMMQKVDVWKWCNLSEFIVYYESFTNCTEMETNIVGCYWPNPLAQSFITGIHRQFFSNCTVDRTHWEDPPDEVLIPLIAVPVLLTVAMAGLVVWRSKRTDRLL

[10] = target: T11, rat calcitonin (a) receptor (rat, UniProt P32214 25-516)
T11 sequence (looked up): T10 sequence (looked up) 1

Amylin receptor human EC50 (pM) [1]: 306 pM
Amylin receptor human EC50 [2]: 0.305 nM
Amylin receptor human EC50 (pM) [3]: 306 pM
Amylin receptor human EC50 (pM) [4]: 306 pM
CTa receptor human EC50 [5]: 0.669 nM
CTa receptor human EC50 (pM) [5]: 669 pM
Binder: {C20 diacid-γGlu}-SSGSSGHCNTATCATQRLAEFLHHSSNNFGPILPPTNVGSNTY-NH2 (disulfide 8-13)

Amylin receptor human EC50 (pM) [6]: 29.5 pM
Binder: {C18 diacid-γGlu-AEEA-AEEA}-[dR][dR][Orn]CNTATCATQRLAEFLHRSSNNFGPILPPTNVGSNTY-NH2 (disulfide 4-9 (inferred))

Further lines, the binder ahead of its results:

Binder: {C20 diacid}-EERECNTATCATQRLAEFLHHSSNNFGPILPPTNVGSNTP-NH2 (disulfide 5-10 (inferred)) [N-alpha-(19-carboxynonadecanoyl)-Glu-Glu-Arg-[Glu1,Glu14,His17,Pro37]-pramlintide]
Amylin receptor human EC50 (pM) [1]: 288 pM
Amylin receptor human EC50 [2]: 0.288 nM
Amylin receptor human EC50 (pM) [3]: 288 pM
Amylin receptor human EC50 (pM) [4]: 288 pM
CTa receptor human EC50 [5]: 0.443 nM
CTa receptor human EC50 (pM) [5]: 443 pM
Amylin receptor human EC50 (pM) (human amylin receptor): 288 pM
Amylin receptor human EC50 (pM) (Amylin receptor human): 288 pM

B1: N-alpha-[(S)-4-Carboxy-4-(19-carboxynonadecanoylamino)butyryl]-[Glu1,Gly3,Glu14,Arg18,Ser21,Ser22,Ala25,Pro26,Ser28,Ser29,Glu31,Arg35]-pramlintide (peptide)
peptide: {C20 diacid-γGlu}-ECGTATCATQRLAEFLVRSSSSFGAPLSSTEVGSRTY-NH2
modifications: disulfide 2-7
SMILES: CC(C)C[C@H](NC(=O)[C@H](CCCNC(=N)N)NC(=O)[C@H](CCC(N)=O)NC(=O)[C@@H](NC(=O)[C@H](C)NC(=O)[C@@H]1CSSC[C@H](NC(=O)[C@H](CCC(=O)O)NC(=O)CC[C@H](NC(=O)CCCCCCCCCCCCCCCCCCC(=O)O)C(=O)O)C(=O)NCC(=O)N[C@@H]([C@@H](C)O)C(=O)N[C@@H](C)C(=O)N[C@@H]([C@@H](C)O)C(=O)N1)[C@@H](C)O)C(=O)N[C@@H](C)C(=O)N[C@@H](CCC(=O)O)C(=O)N[C@@H](Cc1ccccc1)C(=O)N[C@@H](CC(C)C)C(=O)N[C@H](C(=O)N[C@@H](CCCNC(=N)N)C(=O)N[C@@H](CO)C(=O)N[C@@H](CO)C(=O)N[C@@H](CO)C(=O)N[C@@H](CO)C(=O)N[C@@H](Cc1ccccc1)C(=O)NCC(=O)N[C@@H](C)C(=O)N1CCC[C@H]1C(=O)N[C@@H](CC(C)C)C(=O)N[C@@H](CO)C(=O)N[C@@H](CO)C(=O)N[C@H](C(=O)N[C@@H](CCC(=O)O)C(=O)N[C@H](C(=O)NCC(=O)N[C@@H](CO)C(=O)N[C@@H](CCCNC(=N)N)C(=O)N[C@H](C(=O)N[C@@H](Cc1ccc(O)cc1)C(N)=O)[C@@H](C)O)C(C)C)[C@@H](C)O)C(C)C
Amylin receptor human EC50 [7]: 1.44 nM
CTa receptor human EC50 [8]: 0.672 nM
Amylin receptor rat EC50 [9]: 4.51 nM
CTa receptor rat EC50 [10]: 1.75 nM

B2: N-alpha-[(S)-4-Carboxy-4-(19-carboxynonadecanoylamino)butyryl]-His-His-[His1,Arg3,Glu14,His17]-pramlintide (peptide)
peptide: {C20 diacid-γGlu}-HHHCRTATCATQRLAEFLHHSSNNFGPILPPTNVGSNTY-NH2
modifications: disulfide 4-9
SMILES: CC[C@H](C)[C@H](NC(=O)[C@@H]1CCCN1C(=O)CNC(=O)[C@H](Cc1ccccc1)NC(=O)[C@H](CC(N)=O)NC(=O)[C@H](CC(N)=O)NC(=O)[C@H](CO)NC(=O)[C@H](CO)NC(=O)[C@H](Cc1c[nH]cn1)NC(=O)[C@H](Cc1c[nH]cn1)NC(=O)[C@H](CC(C)C)NC(=O)[C@H](Cc1ccccc1)NC(=O)[C@H](CCC(=O)O)NC(=O)[C@H](C)NC(=O)[C@H](CC(C)C)NC(=O)[C@H](CCCNC(=N)N)NC(=O)[C@H](CCC(N)=O)NC(=O)[C@@H](NC(=O)[C@H](C)NC(=O)[C@@H]1CSSC[C@H](NC(=O)[C@H](Cc2c[nH]cn2)NC(=O)[C@H](Cc2c[nH]cn2)NC(=O)[C@H](Cc2c[nH]cn2)NC(=O)CC[C@H](NC(=O)CCCCCCCCCCCCCCCCCCC(=O)O)C(=O)O)C(=O)N[C@@H](CCCNC(=N)N)C(=O)N[C@@H]([C@@H](C)O)C(=O)N[C@@H](C)C(=O)N[C@@H]([C@@H](C)O)C(=O)N1)[C@@H](C)O)C(=O)N[C@@H](CC(C)C)C(=O)N1CCC[C@H]1C(=O)N1CCC[C@H]1C(=O)N[C@H](C(=O)N[C@@H](CC(N)=O)C(=O)N[C@H](C(=O)NCC(=O)N[C@@H](CO)C(=O)N[C@@H](CC(N)=O)C(=O)N[C@H](C(=O)N[C@@H](Cc1ccc(O)cc1)C(N)=O)[C@@H](C)O)C(C)C)[C@@H](C)O
Amylin receptor human EC50 [7]: 0.0985 nM
CTa receptor human EC50 [8]: 0.157 nM
Amylin receptor rat EC50 [9]: 0.261 nM
CTa receptor rat EC50 [10]: 1.29 nM

B3: N-alpha-(19-carboxynonadecanoyl)-Glu-Glu-Arg-[Glu1,Pro37]-pramlintide (peptide)
peptide: {C20 diacid}-EERECNTATCATQRLANFLVHSSNNFGPILPPTNVGSNTP-NH2
modifications: disulfide 5-10
SMILES: CC[C@H](C)[C@H](NC(=O)[C@@H]1CCCN1C(=O)CNC(=O)[C@H](Cc1ccccc1)NC(=O)[C@H](CC(N)=O)NC(=O)[C@H](CC(N)=O)NC(=O)[C@H](CO)NC(=O)[C@H](CO)NC(=O)[C@H](Cc1c[nH]cn1)NC(=O)[C@@H](NC(=O)[C@H](CC(C)C)NC(=O)[C@H](Cc1ccccc1)NC(=O)[C@H](CC(N)=O)NC(=O)[C@H](C)NC(=O)[C@H](CC(C)C)NC(=O)[C@H](CCCNC(=N)N)NC(=O)[C@H](CCC(N)=O)NC(=O)[C@@H](NC(=O)[C@H](C)NC(=O)[C@@H]1CSSC[C@H](NC(=O)[C@H](CCC(=O)O)NC(=O)[C@H](CCCNC(=N)N)NC(=O)[C@H](CCC(=O)O)NC(=O)[C@H](CCC(=O)O)NC(=O)CCCCCCCCCCCCCCCCCCC(=O)O)C(=O)N[C@@H](CC(N)=O)C(=O)N[C@@H]([C@@H](C)O)C(=O)N[C@@H](C)C(=O)N[C@@H]([C@@H](C)O)C(=O)N1)[C@@H](C)O)C(C)C)C(=O)N[C@@H](CC(C)C)C(=O)N1CCC[C@H]1C(=O)N1CCC[C@H]1C(=O)N[C@H](C(=O)N[C@@H](CC(N)=O)C(=O)N[C@H](C(=O)NCC(=O)N[C@@H](CO)C(=O)N[C@@H](CC(N)=O)C(=O)N[C@H](C(=O)N1CCC[C@H]1C(N)=O)[C@@H](C)O)C(C)C)[C@@H](C)O
Amylin receptor human EC50 [2]: 0.045 nM
CTa receptor human EC50 [5]: 0.0615 nM

Binder: {C20 diacid-γGlu}-SSGSSGCNTATCATQRLAEFLHHSSNNFGPILPPTNVGSNTY-NH2 (disulfide 7-12)
Amylin receptor human EC50 (pM) [1]: 253 pM
Amylin receptor human EC50 [2]: 0.253 nM
Amylin receptor human EC50 (pM) [4]: 253 pM
CTa receptor human EC50 [5]: 0.432 nM
CTa receptor human EC50 (pM) [5]: 432 pM
